Data as given in PMC7822592, “The half-life of the bone-derived hormone osteocalcin is regulated through O-glycosylation in mice, but not in humans” (eLife, 2020).
No end group written: not given here. O‑glycan = not defined here

How the values were obtained:
[1] = In vivo half-life assay, serum OCN after intraperitoneal injection in Bglap-/- mice; design: species or system mouse; details: for serum OCN / Serum OCN at 120 minutes: fed Bglap-/- male mice; for serum OCN / % OCN from initial (relative to maximum at 30 min) / % OCN from initial, mean used for 1/2 life: 40 ng/g i.p.; for serum OCN: ELISA; for % OCN from initial (relative to maximum at 30 min) / % OCN from initial, mean used for 1/2 life: serum, fasted Bglap-/- mice
Procedure: For in vivo half-life assay, Bglap-/- male mice were injected intraperitoneally with 40 or 80 ng/g of body weight of mouse O-glycosylated ucOCN or non-glycosylated ucOCN, serum OCN level was analyzed at indicated time points using total mouse OCN ELISA. In all ex vivo and in vivo studies, mouse or human proteins were prepared in saline solution (0.9% NaCl) containing BSA (35 mg/ml) as a carrier.

human plasmin = biological target: T1, human plasmin (Homo sapiens, UniProt P00747); experiment: Plasmin enzymatic assay on OCN in heat-inactivated plasma; assay type: in vitro ADME; details: 2hrs, 37°C; for % OCN from initial: heat-inactivated Bglap-/- plasma diluted two times in 100 mM Tris pH 7.5, 50 ng/ml, ELISA; for % OCN from initial in plasmin (0.3 U/ml): inset graph, heat-inactivated Bglap-/- plasma, 50 ng/ml
T1 construct: different concentration of human plasmin (Sigma); purchased Sigma P1867
Procedure: The plasmin enzymatic assay was performed on plasma ex vivo in the presence of non-glycosylated OCN and glycosylated OCN as follows: plasma from Bglap-/- mice was heat-inactivated for 30 min at 56°C, then diluted two times in the enzyme assay buffer containing 100 mM Tris buffer pH 7.5. Non-glycosylated OCN or glycosylated OCN was incubated at 50 ng/ml in the diluted plasma for two hours in the presence of different concentration of human plasmin (Sigma) ranging from 0 to 0.3 U/ml. After two hours, OCN level was measured using total mouse OCN ELISA. Results are represented as percentage of initial concentration of non-glycosylated and glycosylated OCN respectively.

T1 sequence (P00747 581-810 limits assumed): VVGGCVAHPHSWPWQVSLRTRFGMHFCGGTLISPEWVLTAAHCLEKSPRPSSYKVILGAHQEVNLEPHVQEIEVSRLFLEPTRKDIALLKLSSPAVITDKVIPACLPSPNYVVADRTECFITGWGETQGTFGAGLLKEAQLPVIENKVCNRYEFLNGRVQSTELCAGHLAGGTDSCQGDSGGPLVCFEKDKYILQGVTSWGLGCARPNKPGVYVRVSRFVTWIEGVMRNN
T1 sequence (P00747 97-580 partner limits assumed): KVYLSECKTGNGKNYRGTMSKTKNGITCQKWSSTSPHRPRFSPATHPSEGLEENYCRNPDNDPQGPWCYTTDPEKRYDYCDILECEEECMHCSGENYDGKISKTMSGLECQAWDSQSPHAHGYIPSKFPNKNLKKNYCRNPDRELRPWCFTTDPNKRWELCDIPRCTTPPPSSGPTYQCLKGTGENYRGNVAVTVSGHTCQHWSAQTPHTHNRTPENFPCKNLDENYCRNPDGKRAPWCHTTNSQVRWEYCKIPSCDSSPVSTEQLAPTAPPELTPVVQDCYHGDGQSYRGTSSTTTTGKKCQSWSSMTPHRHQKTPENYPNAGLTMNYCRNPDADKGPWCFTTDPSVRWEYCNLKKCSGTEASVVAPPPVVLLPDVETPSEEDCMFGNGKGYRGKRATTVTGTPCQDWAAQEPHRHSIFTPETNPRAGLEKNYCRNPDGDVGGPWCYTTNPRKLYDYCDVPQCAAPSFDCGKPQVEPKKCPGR

In the case of “O-gly ucOCN: O-glycosylated uncarboxylated mouse osteocalcin produced and purified from HEK293 as Fc fusion, released by thrombin (YLGASVPS(O‑glycan)PDPLEPTREQCELNPACDELSDQYGLKTAYKRIYGITI; ends and bridges not checked; also: O-glycosylated (HexNAc, Hex, NANA); UniProt P86546 50-95, looked up)”, the “serum OCN” value ([1]; 90 min, mouse 10) is reported as 11.4 ng/mL, the “serum OCN” value ([1]; 120 min, mouse 1) is reported as 5.5 ng/mL and the “serum OCN” value ([1]; 120 min, mouse 2) is reported as 9.5 ng/mL. For the same substance, the “serum OCN” value ([1]; 120 min, mouse 3) was 4.6 ng/mL, the “serum OCN” value ([1]; 120 min, mouse 4) was 13.3 ng/mL and the “serum OCN” value ([1]; 120 min, mouse 5) was 10.2 ng/mL. For the same substance, the “serum OCN” value ([1]; 120 min, mouse 6) was 7.5 ng/mL, the “serum OCN” value ([1]; 120 min, mouse 7) was 4.4 ng/mL and the “serum OCN” value ([1]; 120 min, mouse 8) was 8.5 ng/mL. For the same substance, the “serum OCN” value ([1]; 120 min, mouse 9) was 6.4 ng/mL, the “serum OCN” value ([1]; 120 min, mouse 10) was 5.9 ng/mL and the “serum OCN” value ([1]; 180 min, mouse 1) was 1.2 ng/mL. The “serum OCN” value ([1]; 180 min, mouse 2) was 2.3 ng/mL, the “serum OCN” value ([1]; 180 min, mouse 3) was 1.0 ng/mL and the “serum OCN” value ([1]; 180 min, mouse 4) was 2.9 ng/mL. The “serum OCN” value ([1]; 180 min, mouse 5) was 2.4 ng/mL, the “serum OCN” value ([1]; 180 min, mouse 6) was 4.2 ng/mL and the “serum OCN” value ([1]; 180 min, mouse 7) was 3.5 ng/mL. For the same substance, the “serum OCN” value ([1]; 180 min, mouse 8) was 4.0 ng/mL, the “serum OCN” value ([1]; 180 min, mouse 9) was 3.7 ng/mL and the “serum OCN” value ([1]; 180 min, mouse 10) was 3.9 ng/mL. For the same substance, the “Serum OCN at 120 minutes” value ([1]; dose 40 ng/g i.p., mouse 1) was 9.5 ng/mL, the “Serum OCN at 120 minutes” value ([1]; dose 40 ng/g i.p., mouse 2) was 4.6 ng/mL and the “Serum OCN at 120 minutes” value ([1]; dose 40 ng/g i.p., mouse 3) was 13.3 ng/mL. The “Serum OCN at 120 minutes” value ([1]; dose 40 ng/g i.p., mouse 4) was 10.2 ng/mL, the “Serum OCN at 120 minutes” value ([1]; dose 80 ng/g i.p., mouse 1) was 11.6 ng/mL and the “Serum OCN at 120 minutes” value ([1]; dose 80 ng/g i.p., mouse 2) was 22.5 ng/mL. The “Serum OCN at 120 minutes” value ([1]; dose 80 ng/g i.p., mouse 3) was 25.2 ng/mL, the “Serum OCN at 120 minutes” value ([1]; dose 80 ng/g i.p., mouse 4) was 14.9 ng/mL and the “% OCN from initial (relative to maximum at 30 min)” value ([1]; 30 min, mouse 1) was 100.0%. For the same substance, the “% OCN from initial (relative to maximum at 30 min)” value ([1]; 30 min, mouse 2) was 100.0%, the “% OCN from initial (relative to maximum at 30 min)” value ([1]; 30 min, mouse 3) was 100.0% and the “% OCN from initial (relative to maximum at 30 min)” value ([1]; 30 min, mouse 4) was 100.0%. The “% OCN from initial (relative to maximum at 30 min)” value ([1]; 30 min, mouse 5) was 100.0%, the “% OCN from initial (relative to maximum at 30 min)” value ([1]; 60 min, mouse 1) was 89.4% and the “% OCN from initial (relative to maximum at 30 min)” value ([1]; 60 min, mouse 2) was 88.9%. For the same substance, the “% OCN from initial (relative to maximum at 30 min)” value ([1]; 60 min, mouse 3) was 97.3%, the “% OCN from initial (relative to maximum at 30 min)” value ([1]; 60 min, mouse 4) was 86.4% and the “% OCN from initial (relative to maximum at 30 min)” value ([1]; 60 min, mouse 5) was 90.9%. For the same substance, the “% OCN from initial (relative to maximum at 30 min)” value ([1]; 90 min, mouse 1) was 85.8%, the “% OCN from initial (relative to maximum at 30 min)” value ([1]; 90 min, mouse 2) was 74.3% and the “% OCN from initial (relative to maximum at 30 min)” value ([1]; 90 min, mouse 3) was 85.8%. The “% OCN from initial (relative to maximum at 30 min)” value ([1]; 90 min, mouse 4) was 74.6%, the “% OCN from initial (relative to maximum at 30 min)” value ([1]; 90 min, mouse 5) was 75.0% and the “% OCN from initial (relative to maximum at 30 min)” value ([1]; 120 min, mouse 1) was 70.4%. For the same substance, the “% OCN from initial (relative to maximum at 30 min)” value ([1]; 120 min, mouse 2) was 66.4%, the “% OCN from initial (relative to maximum at 30 min)” value ([1]; 120 min, mouse 3) was 75.1% and the “% OCN from initial (relative to maximum at 30 min)” value ([1]; 120 min, mouse 4) was 74.6%. For the same substance, the “% OCN from initial (relative to maximum at 30 min)” value ([1]; 120 min, mouse 5) was 74.7%, the “% OCN from initial, mean used for 1/2 life” value (“% OCN from initial, mean used” for short) ([1]; time 0 min of declining phase) was 100.0% and the “% OCN from initial, mean used” value ([1]; time 30 min of declining phase) was 90.6%. For the same substance, the “% OCN from initial, mean used” value ([1]; time 60 min of declining phase) was 79.1%, the “% OCN from initial, mean used” value ([1]; time 90 min of declining phase) was 72.2% and the “% OCN from initial” value (human plasmin; plasmin 0 U/ml, replicate 1) was 96.7%. The “% OCN from initial” value (human plasmin; plasmin 0 U/ml, replicate 2) was 103.3%, the “% OCN from initial” value (human plasmin; plasmin 0.024 U/ml, replicate 1) was 81.4% and the “% OCN from initial” value (human plasmin; plasmin 0.024 U/ml, replicate 2) was 86.9%. For the same substance, the “% OCN from initial” value (human plasmin; plasmin 0.12 U/ml, replicate 1) was 63.3%, the “% OCN from initial” value (human plasmin; plasmin 0.12 U/ml, replicate 2) was 75.7% and the “% OCN from initial” value (human plasmin; plasmin 0.3 U/ml, replicate 1) was 34.5%. For the same substance, the “% OCN from initial” value (human plasmin; plasmin 0.3 U/ml, replicate 2) was 40.8%, the “% OCN from initial in plasmin (0.3 U/ml)” value (human plasmin; replicate 1) was 34.5% and the “% OCN from initial in plasmin (0.3 U/ml)” value (human plasmin; replicate 2) was 40.8%. The “% OCN from initial in plasmin (0.3 U/ml)” value (human plasmin; replicate 3) was 32.1%, the “% OCN from initial in plasmin (0.3 U/ml)” value (human plasmin; replicate 4) was 27.0% and the “% OCN from initial in plasmin (0.3 U/ml)” value (human plasmin; replicate 5) was 38.6%.
